In article PMC11514458 one finds binding result, Ka and Kd data, which are given here for three molecules.

In data set [1] the target is T1, RAD51;BCD(R266A)X2 (human?;human?, UniProt Q06609;O15315;O43502;O75771;O43543 1-339;1-384;1-376;1-328;1-280, |R266A). Kind of data set: BLI; no RAD51 loading by mutant; EMSA: 20 mM Tris-HCl pH 7.5, 2 mM MgCl2, 2 mM ATP, 37 C, 20 nM DNA, glutaraldehyde fixation; stopped-flow: 25 mM Tris-HCl pH 7.5, 5 mM MgCl2, 50 mM KCl, 2 mM ATP, 0.5 mM EDTA, 10% glycerol, 37 C; BLI: 50 mM Tris-HCl pH 7.5, 2 mM ATP, 50 mM KCl, 5 mM MgCl2, 0.05% Tween 20, room temperature. To be noted: protein: recombinant;recombinant; tags: ;; copies: 1;1;1;1;1; label: 5' biotin. For orientation: Biolayer interferometry detects binding as a change in optical thickness at a sensor tip.

Data set [2] concerns the target T2, RAD51;BCDX2(R159A) (human?;human?, UniProt Q06609;O15315;O43502;O75771;O43543 1-339;1-384;1-376;1-328;1-280, |R159A). Described as above. As to conditions: protein: recombinant;recombinant; tags: ;; copies: 1;1;1;1;1; label: 5' biotin.
The target in data set [3] is T3, RAD51 (UniProt Q06609 1-339). Kind of data set: stopped-flow fluorescence (global fit); RAD51 without BCDX2; ATP, Mg2+; EMSA: 20 mM Tris-HCl pH 7.5, 2 mM MgCl2, 2 mM ATP, 37 C, 20 nM DNA, glutaraldehyde fixation; stopped-flow: 25 mM Tris-HCl pH 7.5, 5 mM MgCl2, 50 mM KCl, 2 mM ATP, 0.5 mM EDTA, 10% glycerol, 37 C; BLI: 50 mM Tris-HCl pH 7.5, 2 mM ATP, 50 mM KCl, 5 mM MgCl2, 0.05% Tween 20, room temperature. To be noted: protein: recombinant; chain copies: 10; label: Cy3 at 3' or 5'. A general note: In EMSA bound probe runs differently from free probe, usually more slowly.

The target of data set [4] is T3, RAD51. Kind of data set: stopped-flow fluorescence (Hill); Kd,1; ATP, Mg2+; EMSA: 20 mM Tris-HCl pH 7.5, 2 mM MgCl2, 2 mM ATP, 37 C, 20 nM DNA, glutaraldehyde fixation; stopped-flow: 25 mM Tris-HCl pH 7.5, 5 mM MgCl2, 50 mM KCl, 2 mM ATP, 0.5 mM EDTA, 10% glycerol, 37 C; BLI: 50 mM Tris-HCl pH 7.5, 2 mM ATP, 50 mM KCl, 5 mM MgCl2, 0.05% Tween 20, room temperature. As to conditions: protein: recombinant; chain copies: 10; label: Cy3 at 3' or 5'.

Data set [5] deals with T4, BCDX2 complex (human, UniProt O15315;O43502;O75771;O43543 1-384;1-376;1-328;1-280).
T4 sequence 1: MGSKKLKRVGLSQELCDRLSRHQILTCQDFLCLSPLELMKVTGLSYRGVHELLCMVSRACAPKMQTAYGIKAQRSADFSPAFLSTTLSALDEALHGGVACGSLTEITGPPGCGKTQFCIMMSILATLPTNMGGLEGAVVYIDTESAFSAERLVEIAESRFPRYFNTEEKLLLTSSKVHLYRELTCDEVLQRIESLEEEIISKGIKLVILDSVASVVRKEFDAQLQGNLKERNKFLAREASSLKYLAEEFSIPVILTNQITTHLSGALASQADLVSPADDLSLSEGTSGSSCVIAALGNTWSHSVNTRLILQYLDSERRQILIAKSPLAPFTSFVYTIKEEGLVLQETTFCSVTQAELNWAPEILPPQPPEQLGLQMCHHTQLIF
T4 sequence 2: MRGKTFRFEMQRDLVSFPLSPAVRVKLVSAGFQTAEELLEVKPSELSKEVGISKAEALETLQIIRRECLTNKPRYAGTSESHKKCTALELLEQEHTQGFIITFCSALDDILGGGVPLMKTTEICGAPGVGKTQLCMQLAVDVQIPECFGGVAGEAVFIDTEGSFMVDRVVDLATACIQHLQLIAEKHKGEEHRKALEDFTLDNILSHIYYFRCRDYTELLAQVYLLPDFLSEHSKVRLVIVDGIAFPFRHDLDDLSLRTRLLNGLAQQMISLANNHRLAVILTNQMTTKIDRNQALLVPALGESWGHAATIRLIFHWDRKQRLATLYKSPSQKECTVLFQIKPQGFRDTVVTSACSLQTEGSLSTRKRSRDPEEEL
T4 sequence 3: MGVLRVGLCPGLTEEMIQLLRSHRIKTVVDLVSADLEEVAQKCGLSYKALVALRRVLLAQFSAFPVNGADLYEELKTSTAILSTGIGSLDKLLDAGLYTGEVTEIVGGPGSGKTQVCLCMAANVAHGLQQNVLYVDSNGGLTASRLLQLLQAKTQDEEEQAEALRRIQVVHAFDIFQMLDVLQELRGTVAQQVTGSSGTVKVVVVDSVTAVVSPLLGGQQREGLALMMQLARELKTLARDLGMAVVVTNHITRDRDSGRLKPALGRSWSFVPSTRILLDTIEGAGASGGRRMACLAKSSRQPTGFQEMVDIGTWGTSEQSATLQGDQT
T4 sequence 4: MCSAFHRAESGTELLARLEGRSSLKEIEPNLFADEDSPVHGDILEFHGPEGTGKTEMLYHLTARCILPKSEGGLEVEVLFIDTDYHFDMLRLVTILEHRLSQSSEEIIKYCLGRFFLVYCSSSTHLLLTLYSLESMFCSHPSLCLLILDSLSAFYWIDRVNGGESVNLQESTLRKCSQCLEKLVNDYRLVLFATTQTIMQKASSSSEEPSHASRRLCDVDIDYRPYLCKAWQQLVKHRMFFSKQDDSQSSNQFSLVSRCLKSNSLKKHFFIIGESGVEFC
Put plainly: stopped-flow fluorescence (amplitude, A1); Kd,1 initial complex; ATP, Mg2+; EMSA: 20 mM Tris-HCl pH 7.5, 2 mM MgCl2, 2 mM ATP, 37 C, 20 nM DNA, glutaraldehyde fixation; stopped-flow: 25 mM Tris-HCl pH 7.5, 5 mM MgCl2, 50 mM KCl, 2 mM ATP, 0.5 mM EDTA, 10% glycerol, 37 C; BLI: 50 mM Tris-HCl pH 7.5, 2 mM ATP, 50 mM KCl, 5 mM MgCl2, 0.05% Tween 20, room temperature. As to conditions: protein: recombinant; tags: Strep-tag and His-tag (XRCC2 N-terminal His); copies: 1;1;1;1; label: Cy3 at 3' or 5'.

Data set [6] addresses T4, BCDX2 complex. Put plainly: stopped-flow fluorescence (global fit); initial complex k1/k-1; 2 mM ATP, 5 mM Mg2+; EMSA: 20 mM Tris-HCl pH 7.5, 2 mM MgCl2, 2 mM ATP, 37 C, 20 nM DNA, glutaraldehyde fixation; stopped-flow: 25 mM Tris-HCl pH 7.5, 5 mM MgCl2, 50 mM KCl, 2 mM ATP, 0.5 mM EDTA, 10% glycerol, 37 C; BLI: 50 mM Tris-HCl pH 7.5, 2 mM ATP, 50 mM KCl, 5 mM MgCl2, 0.05% Tween 20, room temperature. To be noted: protein: recombinant; tags: Strep-tag and His-tag (XRCC2 N-terminal His); copies: 1;1;1;1; label: Cy3 at 3' or 5'.

Data set [7] concerns the target T4, BCDX2 complex. Put plainly: stopped-flow fluorescence (total amplitude); Kd,net two-step; ATP, Mg2+; EMSA: 20 mM Tris-HCl pH 7.5, 2 mM MgCl2, 2 mM ATP, 37 C, 20 nM DNA, glutaraldehyde fixation; stopped-flow: 25 mM Tris-HCl pH 7.5, 5 mM MgCl2, 50 mM KCl, 2 mM ATP, 0.5 mM EDTA, 10% glycerol, 37 C; BLI: 50 mM Tris-HCl pH 7.5, 2 mM ATP, 50 mM KCl, 5 mM MgCl2, 0.05% Tween 20, room temperature. To be noted: protein: recombinant; tags: Strep-tag and His-tag (XRCC2 N-terminal His); copies: 1;1;1;1; label: Cy3 at 3' or 5'.

Data set [8] addresses T3, RAD51. Put plainly: stopped-flow fluorescence (global fit); initial weak binding step; 2 mM ATP, 5 mM Mg2+; EMSA: 20 mM Tris-HCl pH 7.5, 2 mM MgCl2, 2 mM ATP, 37 C, 20 nM DNA, glutaraldehyde fixation; stopped-flow: 25 mM Tris-HCl pH 7.5, 5 mM MgCl2, 50 mM KCl, 2 mM ATP, 0.5 mM EDTA, 10% glycerol, 37 C; BLI: 50 mM Tris-HCl pH 7.5, 2 mM ATP, 50 mM KCl, 5 mM MgCl2, 0.05% Tween 20, room temperature. To be noted: protein: recombinant; chain copies: 10; label: Cy3 at 3' or 5'.

The target in data set [9] is RAD51;BCDX2 complex (human?;human, UniProt Q06609;O15315;O43502;O75771;O43543 1-339;1-384;1-376;1-328;1-280, |). Kind of data set: stopped-flow fluorescence (global fit); RAD51 binding in presence of BCDX2; ATP, Mg2+; EMSA: 20 mM Tris-HCl pH 7.5, 2 mM MgCl2, 2 mM ATP, 37 C, 20 nM DNA, glutaraldehyde fixation; stopped-flow: 25 mM Tris-HCl pH 7.5, 5 mM MgCl2, 50 mM KCl, 2 mM ATP, 0.5 mM EDTA, 10% glycerol, 37 C; BLI: 50 mM Tris-HCl pH 7.5, 2 mM ATP, 50 mM KCl, 5 mM MgCl2, 0.05% Tween 20, room temperature. To be noted: protein: recombinant;recombinant; tags: ;Strep-tag and His-tag (XRCC2 N-terminal His); copies: 1;1;1;1;1; label: Cy3 at 3' or 5'.

Data set [10] deals with T1, RAD51;BCD(R266A)X2. Put plainly: BLI; RAD51 loading retained; EMSA: 20 mM Tris-HCl pH 7.5, 2 mM MgCl2, 2 mM ATP, 37 C, 20 nM DNA, glutaraldehyde fixation; stopped-flow: 25 mM Tris-HCl pH 7.5, 5 mM MgCl2, 50 mM KCl, 2 mM ATP, 0.5 mM EDTA, 10% glycerol, 37 C; BLI: 50 mM Tris-HCl pH 7.5, 2 mM ATP, 50 mM KCl, 5 mM MgCl2, 0.05% Tween 20, room temperature. To be noted: protein: recombinant;recombinant; tags: ;; copies: 1;1;1;1;1; label: 3' Cy3 on strand 1; reversed fork of 4 strands, 3' ssDNA tail.

For data set [11], the target named is T2, RAD51;BCDX2(R159A). The data set is described as above. To be noted: protein: recombinant;recombinant; tags: ;; copies: 1;1;1;1;1; label: 3' Cy3 on strand 1; reversed fork of 4 strands, 3' ssDNA tail.

The term Kd denotes the constant that tells how readily two partners part at equilibrium.

T3 sequence (Q06609 whole entry): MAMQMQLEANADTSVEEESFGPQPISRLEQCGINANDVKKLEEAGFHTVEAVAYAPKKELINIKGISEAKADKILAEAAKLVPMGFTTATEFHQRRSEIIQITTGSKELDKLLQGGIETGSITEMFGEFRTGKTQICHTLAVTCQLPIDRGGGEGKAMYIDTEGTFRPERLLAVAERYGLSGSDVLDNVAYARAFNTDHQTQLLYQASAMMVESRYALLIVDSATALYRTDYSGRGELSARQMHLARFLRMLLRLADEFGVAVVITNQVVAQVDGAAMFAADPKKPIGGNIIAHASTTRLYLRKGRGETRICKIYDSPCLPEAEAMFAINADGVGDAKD
T1 sequence (Q06609 whole entry, stated change not applied, one chain of several): as the sequence (Q06609 whole entry) above
T2 sequence (Q06609 whole entry, stated change not applied, one chain of several): as the sequence (Q06609 whole entry) above
Chain of RAD51;BCDX2 complex (Q06609 whole entry, one chain of several): as the sequence (Q06609 whole entry) above

B1: biotin-dT20 (ssDNA)
DNA: TTTTTTTTTTTTTTTTTTTT
B1: the binding result in data set [1] and in data set [2] was “no binding” each time.

B2: Cy3-dT43 (ssDNA)
DNA: TTTTTTTTTTTTTTTTTTTTTTTTTTTTTTTTTTTTTTTTTTT
As for B2, the Ka was determined as 0.026 nM⁻¹ in data set [3], 3.1 µM⁻¹ in [6], 0.09 µM⁻¹ in data set [8] and 0.064 nM⁻¹ in data set [9]. Further, the figures for the equilibrium dissociation constant (Kd) in [4], in data set [5] and in [7] were 1600 ± 200 nM, 310 ± 50 nM and 220 ± 20 nM, respectively.

B3: 20ntRVF (mixed)
DNA 1: GACGCTGCCGAATTCTACCAGTGCCTTGCTATTTTTTTTTTTTTTTTTTTTTTTTT
DNA 2: ATCTGTTGTAATCGTCAAGCTTTATGCCGTT
DNA 3: GAACGGCATAAAGCTTGACGATTACAACAGATCATGGAGCTGTCTAGAGGATCCGACTATCGA
DNA 4: ATCGATAGTCGGATCCTCTAGACAGCTCCATGTAGCAAGGCACTGGTAGAATTCGGCAGCGT
Turning to B3, the binding result in data set [10] and in [11] was “binds” throughout.
